Our source for the β-globin transcription in G1E cells (RT-qPCR) values is patent US20180051059A1.

The target of this assay is endogenous Ldb1 complexes at the LCR (in G1E cells) (UniProt P70662). The assay is described as follows: cell-based or functional assay.
Sequence of UniProt P70662 (P70662 2-411 limits assumed, one chain of several): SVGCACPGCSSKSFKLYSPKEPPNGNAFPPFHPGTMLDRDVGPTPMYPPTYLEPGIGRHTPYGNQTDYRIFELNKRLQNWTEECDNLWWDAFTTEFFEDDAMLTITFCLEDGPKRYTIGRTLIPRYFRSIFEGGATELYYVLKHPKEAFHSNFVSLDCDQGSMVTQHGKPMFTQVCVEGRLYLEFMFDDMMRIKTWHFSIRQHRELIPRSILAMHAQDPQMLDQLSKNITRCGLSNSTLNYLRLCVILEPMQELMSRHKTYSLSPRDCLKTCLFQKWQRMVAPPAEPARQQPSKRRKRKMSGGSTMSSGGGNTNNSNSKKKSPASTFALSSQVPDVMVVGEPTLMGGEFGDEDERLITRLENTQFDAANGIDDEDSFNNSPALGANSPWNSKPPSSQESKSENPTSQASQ

In the case of “P-Ldb1 (P-ZF, zinc finger protein targeting the β-major promoter, fused to full length Ldb1)”, the β-globin transcription in G1E cells (RT-qPCR) was > 1000 fold.
